Results on nine molecules are retold here after US20260265386A1 (Chugai, published 2026).

The test has as its target T1, human PD1 on NFAT-luc2/PD1 Jurkat Cell line (Promega, #CS187102) (human, UniProt Q15116 25-288).
T1 construct: whole, on cells; also called PD1+Jurkat cells; human PD1-expressing cell line
Nature of the test: flow cytometry on NFAT-luc2/PD1 Jurkat cells, Ab 10 micro g/mL, detected with Goat F(ab')2 anti-Human IgG-PE. (In general: In flow cytometry, cells or beads pass a laser one at a time.)

T1 sequence (Q15116 25-288): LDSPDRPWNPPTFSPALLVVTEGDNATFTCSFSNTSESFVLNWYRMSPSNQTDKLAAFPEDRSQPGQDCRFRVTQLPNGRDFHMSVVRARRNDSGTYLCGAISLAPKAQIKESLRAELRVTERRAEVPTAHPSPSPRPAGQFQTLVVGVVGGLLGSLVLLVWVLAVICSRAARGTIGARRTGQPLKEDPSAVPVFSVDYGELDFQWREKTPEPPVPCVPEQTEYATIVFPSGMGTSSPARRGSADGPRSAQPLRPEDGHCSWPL
From the text: Unbound Abs were removed by washing twice with staining buffer.

B1: PDC0037 (antibody, human IgG1, kappa, V domains shown)
VH: QSVEESGGRLVTPGTPLTLTCTVSGFSLSYYAMIWVRQAPGKGLEWIGFINSYGKTYYANWAKGRFTISKTSTTVDLKMTSLTSEDTATYFCARERDNYHFNLWGQGTLVTVSS
VL: AQVLTQTPSPVSAAVGGTVTISCQSSESVYNNNWLAWYQQKPGQPPKFLIYDASTLASGVPSRFSGSGSGTQFTLTISGVQADDAATYYCQGTYYSSDWYFVFGGGTEVVVKR
Regarding B1, the binding result is listed as “binds”.

B2: PDA0129 (antibody, human IgG1, kappa, V domains shown)
VH: QSVEESGGRLVTPGTPLTLTCTVSGFSLSSYDMSWVRQAPGKGLEYIGIISSSGSTYYASWAKGRFTISKTSTTVDLKITSPTTEDTATYFCARLGYVGYGYADIWGPGTLVTVSS
VL: IEMTQTPFSVSAAVGGTVTIKCQASEDIYSLLAWYQQKPGQPPKLLIYSASTLASGVPSRFKGSGYGTEFTLTISGVQAADAATYYCQGGYYSSSADNTFGGGTEVVVKR
In the case of B2, the binding result was “binds”.

B3: GY14 (antibody, human IgG1, kappa, V domains shown)
VH: QVQLQQSGAELVRPGASVKLSCKALGDTFTDYEIHWVKQTPVHGLEWIGVIHPGSGGTVYNQKFKGKATLTADKYSSTAYMELSSLTSEDSAVYYCTREGMNTDWYFDVWGAGTTVTVSS
VL: DILMTQDELSLPVSLGDQASISCRSSQTIVHTNGNTYLEWYLQKPGQSPKLLIYKVSNRFSGVPDRFSGSGSGTYFTLKISRLEAEDLGVYYCFQGSHVPYTFGGGTKLEMKR
With B3, the binding result is reported as “binds”.

B4: PDA0107 (antibody, human IgG1, kappa, V domains shown)
VH: QSVEESGGRLVTPGTPLTLTCTVSGFSLSRYYMSWVRQAPGKGLEWIGYIYADSGSTWYASWAKGRFTISKTSTTVDLKMTSLTTEDTATYFCARRADHDGAFDLWGPGTLVTVSS
VL: AAVLTQTPSPVSAAVGGTVSISCQSSQSVYGKNELSWYQQKPGQPPKLLIYYASTLASGVPSRFSGSGSGTQFALTISGVQADDAATYYCAGGYSSSVDTTFGGGTEVVVKR
Turning to B4, the binding result is given as “binds”.

B5: PDA0138 (antibody, human IgG1, kappa, V domains shown)
VH: QSVEESGGRLVTPGTPLTLTCTVSGFSLSSYHMCWVRQPPGKGLEYIGIISGGAITYYATWAKGRFTISITSSTTVDLKITSPTTEDTATYFCARGGGYGGGDYNFDLWGQGTLVTVSS
VL: AAVLTQTPSPVSAAVGATVSISCQSSQSVYGNSELAWYQQKPGQRPKLLIFEASKLASGVPSRFSGSGSGTQFSLAISDVQADDAATYYCAGGYSSTSDTTFGGGTEVVVKR
Regarding B5, the binding result was “binds”.

B6: PDA0044 (antibody, human IgG1, kappa, V domains shown)
VH: QSVEESGGRLVTPGTPLTLTCTASGFSLSGYYMSWVRQAPGKGLEWIGSISYGGSTYYASWAKGRFTISKTSTTVDLKITSPTTEDTATYFCAAGYTTNTAFDPWGPGTLVTVSS
VL: AFELTQTPSSVEAAVGGTVTIKCQASQSISSYLAWYQQKPGQPPKLLIYGASNLKSGVPSRFKGSGSGTQFTLTISDLEAADAATYYCQSYYYSSSSSYSFGGGTEVVVKR
For B6, the binding result is on record as “binds”.

B7: PDE0171 (antibody, human IgG1, kappa, V domains shown)
VH: QSLEESGGGLVKPGASLTLTCTASGFSFSGSYYMCWVRQAPGKGLECIACIYAGSSGATYYASWAKGRFTVSKTSSTTVTLQMTSLTAADTATYFCARHTNGIGLGLWGPGTLVTVSS
VL: DIVMTQTPASVSAAVGGTVSINCQASEDIENFLAWYQQKPGQPPSLLIYETSKLASGVPSRFSGSGSGTEFTLTISDLEAADAATYYCQSYDWSDSSTYDNTFGGGTEVVVKR
With B7, the binding result is on record as “binds”.

B8: GY5 (antibody, human IgG1, kappa, V domains shown)
VH: QVQLQQSGPELVRPGVSVKISCKGSGHTFTDYALHWVRQSHVKSLEWIGVISSYNGITNYNQRFKGKATMTVDKSSSTAYLELARLTSEDSAIYYCSREEWDVFYYFDYWGQGTTLTVSS
VL: DIMLTQSPLSLPVSLGDQASISCRSSQGIVHSDGNTYLEWYLQKPGQSPKLLIYKVSNRFSGVPDRFSGSGSGTDFILKISRVEAEDLGVYYCFQGSHVPYTFGGGTKLEIKR
Turning to B8, the binding result was “binds”.

B9: PDC0053 (antibody, human IgG1, kappa, V domains shown)
VH: QQHLVESGGGLVKPGASLTLTCKASGFYFSGYYYMSWVRQAPGKGLEWIASIYSGGSGNTYYASWAKGRFTISKTSSTTVTLQMTSLTAADTATYFCARGADYTHDYPADAAAWSFDPWGPGTLVTVSS
VL: DIVMTQTPASVEAAVGGIVTIKCQASQSISSYLAWYQQKPGQPPNLLIYRASTLASGVPSRFKGSGSGTQFTLTISDLEAADAATYYCQGYHFSSTSSNYGNAFGGGTEVVVKR
Take B9: the binding result is recorded as “binds”.
